*1 amine or outer side, *2 acyl side, *3 side chain or, on linkers, in order; H or OH if unused. Where no end group is shown, it is not given here. Side-chain parts run from the residue outwards. [ ]: non-standard residue; d: D form. The star is where a group is joined. C18 diacid = O=C(O)CCCCCCCCCCCCCCCCC(=O)*; γGlu = O=C(O)[C@H](CCC(=O)[*:2])N[*:1]; Nle = CCCC[C@H](N)C(=O)O; AEEA = NCCOCCOCC(=O)O; Aib = CC(C)(N)C(=O)O
Key:
Assay in all cases: cell-based or functional assay
[1] = biological target: T1, human GIP receptor (human) (UniProt P48546)
T1 sequence (looked up): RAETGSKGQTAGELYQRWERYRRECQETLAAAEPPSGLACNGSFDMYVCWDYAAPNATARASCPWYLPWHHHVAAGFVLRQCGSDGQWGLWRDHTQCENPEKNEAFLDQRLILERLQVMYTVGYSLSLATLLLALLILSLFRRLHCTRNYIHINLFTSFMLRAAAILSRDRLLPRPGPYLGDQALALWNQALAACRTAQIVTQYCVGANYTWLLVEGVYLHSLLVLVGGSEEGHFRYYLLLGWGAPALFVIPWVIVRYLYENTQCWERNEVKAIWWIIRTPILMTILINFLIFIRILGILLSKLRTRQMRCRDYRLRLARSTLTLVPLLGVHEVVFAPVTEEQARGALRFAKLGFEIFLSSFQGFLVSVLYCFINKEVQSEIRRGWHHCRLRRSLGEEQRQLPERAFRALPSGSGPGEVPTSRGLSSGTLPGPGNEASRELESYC

[2] = biological target: human GLP-1 receptor (human) (UniProt P43220)
[3] = biological target: human glucagon receptor (human) (UniProt P47871)
[4] = biological target: human glucagon receptor (human, UniProt P47871 26-477)
human glucagon receptor, sequence (P47871 26-477): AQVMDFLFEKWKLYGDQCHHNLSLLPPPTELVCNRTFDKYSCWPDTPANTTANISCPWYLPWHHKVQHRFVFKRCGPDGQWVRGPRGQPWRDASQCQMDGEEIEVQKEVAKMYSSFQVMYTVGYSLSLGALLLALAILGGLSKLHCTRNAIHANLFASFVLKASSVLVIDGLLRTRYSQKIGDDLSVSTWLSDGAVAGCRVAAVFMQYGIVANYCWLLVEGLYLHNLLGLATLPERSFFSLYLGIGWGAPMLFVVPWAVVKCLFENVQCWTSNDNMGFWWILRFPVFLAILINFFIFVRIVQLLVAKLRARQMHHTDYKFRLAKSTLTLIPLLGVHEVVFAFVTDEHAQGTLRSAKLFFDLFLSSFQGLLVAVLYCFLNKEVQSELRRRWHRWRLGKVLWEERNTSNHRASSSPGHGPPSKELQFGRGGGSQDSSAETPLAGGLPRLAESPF

human glucagon receptor (human), sequence (P47871 26-477): as above
human GLP-1 receptor (human), sequence (P43220 24-463): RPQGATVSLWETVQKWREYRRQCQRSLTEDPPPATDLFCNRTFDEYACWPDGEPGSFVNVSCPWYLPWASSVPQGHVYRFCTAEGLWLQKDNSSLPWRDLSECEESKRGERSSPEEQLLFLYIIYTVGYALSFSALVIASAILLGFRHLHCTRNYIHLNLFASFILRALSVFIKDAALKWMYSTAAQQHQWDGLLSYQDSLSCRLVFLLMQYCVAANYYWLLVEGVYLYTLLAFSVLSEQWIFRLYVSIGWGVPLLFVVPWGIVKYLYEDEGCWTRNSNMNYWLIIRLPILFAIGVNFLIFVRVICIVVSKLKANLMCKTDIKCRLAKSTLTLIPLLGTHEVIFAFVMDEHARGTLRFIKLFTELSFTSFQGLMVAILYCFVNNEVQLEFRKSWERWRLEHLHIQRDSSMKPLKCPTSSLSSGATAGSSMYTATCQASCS

**Q.** Y[Aib]EGTFISDYSIA[Nle]DKIRQQDFVK([γGlu-γGlu-γGlu-C18 diacid])WLLAQKGKEEDWKHNITQ was tested. Which EC50 (pM), hGIP-R CRE Luc, 0.2% HSA [1] did it give?
**A.** The EC50 (pM), hGIP-R CRE Luc, 0.2% HSA was 4.47 pM.

**Q.** And the EC50 (pM), hGLP-1-R CRE Luc, 0.2% HSA [2]?
**A.** Its EC50 (pM), hGLP-1-R CRE Luc, 0.2% HSA is > 100000 pM.

**Q.** What about the EC50 (pM), hGcg-R CRE Luc, 0.2% HSA [3] of the same binder?
**A.** Its EC50 (pM), hGcg-R CRE Luc, 0.2% HSA is > 100000 pM.

**Q.** With H-YAEGTFISDYSIAMDKIHQQDFVNWLLAQKGKKNDWKHNITQ-OH [hGIP(1-42)] as the binder, how does the “EC50 (pM), hGcg-R CRE Luc, 0.2% HSA” value [4] read?
**A.** The value was > 100000 pM.

**Q.** With Y[Aib]EGTFISDYSIA[Nle]DKIHQQDFVK([AEEA-AEEA-γGlu-C18 diacid])WLLAQKGKEDDWKHNITQ as the binder, how does the EC50 (pM), hGIP-R CRE Luc, 0.2% HSA [1] read?
**A.** Its EC50 (pM), hGIP-R CRE Luc, 0.2% HSA is 5.97 pM.

**Q.** And the EC50 (pM), hGLP-1-R CRE Luc, 0.2% HSA [2]?
**A.** The EC50 (pM), hGLP-1-R CRE Luc, 0.2% HSA was > 100000 pM.

**Q.** And the EC50 (pM), hGcg-R CRE Luc, 0.2% HSA [3]?
**A.** Its EC50 (pM), hGcg-R CRE Luc, 0.2% HSA is > 100000 pM.

**Q.** Y[Aib]EGTFISDYSIA[Nle]DKIRQQDFVK([γGlu-γGlu-γGlu-C18 diacid])WLLAQKGKENDWKHNITQ was tested. Which EC50 (pM), hGIP-R CRE Luc, 0.2% HSA [1] did it give?
**A.** Its EC50 (pM), hGIP-R CRE Luc, 0.2% HSA is 20.1 pM.

**Q.** And the EC50 (pM), hGLP-1-R CRE Luc, 1% HSA (footnote *) [2]?
**A.** Its EC50 (pM), hGLP-1-R CRE Luc, 1% HSA (footnote *) is > 100000 pM.

**Q.** And the EC50 (pM), hGcg-R CRE Luc, 1% HSA (footnote *) [3]?
**A.** Its EC50 (pM), hGcg-R CRE Luc, 1% HSA (footnote *) is > 100000 pM.

**Q.** Which results are given for Y[Aib]EGTFISDYSIA[Nle]DKIHQQDFVK([AEEA-AEEA-γGlu-C18 diacid])WLLAQKGKEEDWKHNITQ?
**A.** EC50 (pM), hGIP-R CRE Luc, 0.2% HSA [1]: 5.45 pM; EC50 (pM), hGLP-1-R CRE Luc, 0.2% HSA [2]: > 100000 pM; EC50 (pM), hGcg-R CRE Luc, 0.2% HSA [3]: > 100000 pM

**Q.** What does the source list for Y[Aib]EGTFISDYSIA[Nle]DKIHQQDFVK([γGlu-γGlu-γGlu-C18 diacid])WLLAQKGKEDDWKHNITQ?
**A.** EC50 (pM), hGIP-R CRE Luc, 0.2% HSA [1]: 5.9 pM; EC50 (pM), hGLP-1-R CRE Luc, 0.2% HSA [2]: > 100000 pM; EC50 (pM), hGcg-R CRE Luc, 0.2% HSA [3]: > 100000 pM

**Q.** Y[Aib]EGTFISDYSIA[Nle]DKIHQQDFVK([γGlu-γGlu-γGlu-C18 diacid])WLLAQKGKEEDWKHNITQ was tested. Which EC50 (pM), hGIP-R CRE Luc, 0.2% HSA [1] did it give?
**A.** Its EC50 (pM), hGIP-R CRE Luc, 0.2% HSA is 9 pM.

**Q.** What about the EC50 (pM), hGLP-1-R CRE Luc, 0.2% HSA [2] of the same binder?
**A.** The EC50 (pM), hGLP-1-R CRE Luc, 0.2% HSA was > 100000 pM.

**Q.** And the EC50 (pM), hGcg-R CRE Luc, 0.2% HSA [3]?
**A.** The EC50 (pM), hGcg-R CRE Luc, 0.2% HSA was > 100000 pM.

**Q.** Which EC50 (pM), hGIP-R CRE Luc, 0.2% HSA [1] does the source give for Y[Aib]EGTFISDYSIALDKIHQQDFVK([AEEA-AEEA-γGlu-C18 diacid])WLLAQKGKKNDWKHNITQ here?
**A.** The EC50 (pM), hGIP-R CRE Luc, 0.2% HSA was 56 pM.

**Q.** What about the EC50 (pM), hGLP-1-R CRE Luc, 1% HSA (footnote *) [2] of the same binder?
**A.** Its EC50 (pM), hGLP-1-R CRE Luc, 1% HSA (footnote *) is > 100000 pM.

**Q.** What about the EC50 (pM), hGcg-R CRE Luc, 1% HSA (footnote *) [3] of the same binder?
**A.** The EC50 (pM), hGcg-R CRE Luc, 1% HSA (footnote *) was > 100000 pM.

**Q.** What does the source list for Y[Aib]EGTFISDYSIA[Nle]DKIRQQDFVK([AEEA-AEEA-γGlu-C18 diacid])WLLAQKGKEEDWKHNITQ?
**A.** EC50 (pM), hGIP-R CRE Luc, 0.2% HSA [1]: 4.12 pM; EC50 (pM), hGLP-1-R CRE Luc, 0.2% HSA [2]: > 100000 pM; EC50 (pM), hGcg-R CRE Luc, 0.2% HSA [3]: > 100000 pM
